Results published in patent publication US20230272446A1 (University of Washington, published 2023).

Molecular target: the molecule itself
Assay: analytical size exclusion chromatography with multi-angle light scattering (SEC-MALS); self-association (homodimer)

B1: DHR76 (designed helical repeat protein 76) (other)
chain: MNPELEEWIRRAKEVAKEVEKVAQRAEEEGNPDLRDSAKELRRAVEEAIEEAKKQGNPELVEWVARAAKVAAEVIKVAIQAEKEGNRDLFRAALELVRAVIEAIEEAVKQGNPELVEWVARAAKVAAEVIKVAIQAEKEGNRDLFRAALELVRAVIEAIEEAVKQGNPELVERVARLAKKAAELIKRAIRAEKEGNRDERREALERVREVIERIEELVRQGGWLEHHHHHH
B1: binds.

B2: DHR49 (designed helical repeat protein 49) (other)
chain: MDSEEEQERIRRILKEARKSGTEESLRQAIEDVAQLAKKSQDSEVLEEAIRVILRIAKESGSEEALRQAIRAVAEIAKEAQDSEVLEEAIRVILRIAKESGSEEALRQAIRAVAEIAKEAQDPRVLEEAIRVIRQIAEESGSEEARRQAERAEEEIRRRAQGWLEHHHHHH
B2: binds.
